The results in this text go back to US20120009181A1.

Where a chain is given by its changes, count along the chain named.

Test [1] deals with human folate receptor 1 (FOLR1) (human).
Test [2] has the same target. This is another data set of the same source.
The target is the same in test [3]. This is another data set of the same source.

B1: huMov19 (antibody, V domains shown)
VH: QVQLVQSGAEVVKPGASVKISCKASGYTFTGYFMNWVKQSPGQSLEWIGRIHPYDGDTFYNQKFQGKATLTVDKSSNTAHMELLSLTSEDFAVYYCTRYDGSRAMDYWGQGTTVTVSS
VL: DIVLTQSPLSLAVSLGQPAIISCKASQSVSFAGTSLMHWYHQKPGQQPRLLIYRASNLEAGVPDRFSGSGSKTDFTLNISPVEAEDAATYYCQQSREYPYTFGGGTKLEIKR
In test [1], B1 came in with an ADCC, LDH release, percent specific lysis of IGROV-1 cells with human NK effector cells of 30% and an EC50 of ADCC activity on IGROV-1 cells of 0.2 ng/mL.

B2: huMov19-SPDB-DM4 (antibody, V domains shown)
VH: B1 VH
VL: B1 VL with N78T
modifications: maytansinoid DM4 linked to the antibody through the SPDB linker, 3.5-4 DM4 per antibody; attachment residues not stated
In test [2], B2 returned an IC50, nM (n = 3), Ab-based; in vitro cytotoxicity on JEG-3 cells of 0.2 nM.

B3: huMov19-SMCC-DM1 (antibody, V domains shown)
VH: B1 VH
VL: B1 VL
modifications: maytansinoid DM1 linked to the antibody through the SMCC linker, 3.5-4 DM1 per antibody; attachment residues not stated
In test [2], B3 returned an IC50, nM (n = 3), Ab-based; in vitro cytotoxicity on IGROV-1 cells of 1 nM; an IC50, nM (n = 3), Ab-based; in vitro cytotoxicity on JEG-3 cells of 20 nM; an IC50, nM (n = 3), Ab-based; in vitro cytotoxicity on KB cells of 0.1 nM. This molecule showed a huAb-smcc-DM1 activity on KB in vitro in test [3] of 0.1 nM.

B4: huMov19-sulfo-SPDB-DM4 (antibody, V domains shown)
VH: B1 VH
VL: B1 VL with N78T
modifications: maytansinoid DM4 linked to the antibody through the sulfo-SPDB linker, 3.5-4 DM4 per antibody; attachment residues not stated
For the molecule B4, the IC50, nM (n = 3), Ab-based; in vitro cytotoxicity on IGROV-1 cells in test [2] stood at 0.3 nM.
